The results in this text go back to patent US6846625B1, “Method for identifying validated target and assay combination for drug development” (priority 1998, dated 2005).

One assay has as its target S. aureus MetRS (Staphylococcus aureus, UniProt Q5HII6). Briefly: S. aureus MetRS aminoacylation (functional charging) assay. Type of assay: biochemical. To be noted: methionine varied, ATP held at 1.5 mM; read-out: Kl (methionine). The method, then:
The activity of S. aureus MetRS was monitored by the aminoacylation reaction. The enzyme was diluted in 50 mM HEPES, pH 7.55, 5 mM DTT and 0.01% BSA. A typical 50 μL reaction mixture contained 30 mM HEPES, pH 7.5, 10 mM MgCl2, 30 mM KCl, 90 μM E. coli tRNA, 2 mM ATP and 5 μM [^3H]-methionine (10 Ci/mmol). The reaction was initiated by addition of enzyme at 25° C. At 4 different timepoints, 10 μL of the reaction was quenched into 150 μL cold 5% TCA on a Millipore filter plate. The filter plate is then washed three times with cold 5% TCA followed by water and then ethanol. The filter plate was dried before addition of 100 μL Packard Microscint-20 and counted on a Packard Top-Count microplate scintillation counter.
Inhibition studies were performed for the peptides against two of the substrates, ATP and methionine. This was done at varying concentrations of peptides by holding the concentration of one substrate at its K value (1.5 mM for ATP and 5 μM for methionine), while varying the other substrate concentration around its Km value. The initial velocity data obtained were then analyzed using GraFit.

The test system of another assay is E. coli pPROTet-GST. Briefly: Lethal i.p. infection in mice, vector control strain. Type of assay: in vivo, CD-1 female mice. Particulars: E. coli pPROTet-GST 10^8 cfu/mouse i.p., i.p. ×2. Here is the method:
Groups 5 through 8 served as vector control. The control inoculum was prepared from E. coli pPROTet-GST whose vector carries a gene encoding glutathione S-transferase, but no Pro-3 peptide. E. coli pPROTet-GST was cultured at 37° C. for 17 hr in Luria-Bertani broth containing spectinomycin and chloramphenicol, and then 100 μl of the culture were diluted to 1 ml with the medium for reading OD at 600 nm (0.2858, the medium as blank). Then 3×10^9 cfu (1.05 ml) from the overnight culture were diluted to 15 ml with 0.01 M phosphate buffered saline containing 8% hog gastic mucin. Each mouse of groups 5 through 8 was injected (i.p.) with E. coli pPROTet-GST inocula equivalent to 1×10^8 cfu/mouse (lethal dose).
(§1) One and four hours after the inoculation, groups 1 and 5 animals received a saline injection i.p. at 10 ml/kg; groups 2, 3 and 4 animals received i.p. injections of anhydrotetracycline at 2, 1 and 0.5 mg/kg (diluted in saline), respectively; groups 6, 7 and 8 received i.p. injections of anhydrotetracycline at 2, 1 and 0.5 mg/kg, respectively. The injection volume for all the animals was 10 ml/kg.

The subject of assay [1] is E. coli JM109/pSC/pC^3844. Briefly: Lethal i.p. infection in mice, induced in vivo expression of Pro-3. Details: species or system CD-1 female mice. To be noted: E. coli JM109/pSC/pC^3844 10^8 cfu/mouse i.p., i.p. ×2.
Source text: Intracellularly expressed Pro-3 was expected to bind to and inhibit a specific essential cellular target in a manner similar to that of an antimicrobial drug. Pro-3 was expected to cure the infection when its expression was induced in an animal model of bacterial infection. An established animal infection model was used to test this concept (C. O. Onyeji et al., Antimicrob. Agents Chemother. 38:1112-1117 (1994)).
Eight groups of CD-1 female mice (5 mice per group, Charles River Laboratories; Wilmington, Mass.) weighing 20-24 g were used in this experiment. The inoculum was prepared from E. coli JM109/pSC/pC^3844 which was cultured at 37° C. for 17 hr in Luria-Bertani broth containing spectinomycin and chloramphenicol, and then 100 μl of the culture was diluted to 1 ml with medium for reading OD at 600 nm (0.2403, the medium as blank). The turbidity of a 0.5 McFarland standard is equivalent to OD6000.1, or 10^8 cfu/ml. Then 3×10^9 cfu (colony-forming units) of E. coli JM109/pSC/pC^3844 (1.25 ml) from the overnight culture were diluted to 15 ml with 0.01 M phosphate buffered saline (Sigma P-0261) containing 8% hog gastric mucin (Sigma M-2378), 100 μg/ml spectinomycin and 68 μg/ml chloramphenicol. Each mouse of groups 1 through 4 was injected with 0.5 ml of the inoculum intraperitoneally (i.p.), equivalent to 1×10^8 cfu/mouse (lethal dose).
as §1

For assay [2], the system named is E. coli JM109/pSC/pC^3844. Briefly: E. coli growth in culture upon regulated expression of Pro-3/GST. The format is cell-based, Escherichia coli. Particulars: anhydrotetracycline induction, compared with GST alone. Here is the method: Overnight cultures of JM109/pSC cells harboring pC^3844 (JM109/pSC/pC^3844), or pPROTet-GST (same as pC^3844 without the Pro-3 peptide sequence) were diluted 100-fold in fresh LB medium containing 34 μg/mL chloramphenicol and 50 μg/mL spectinomycin. After 2 hours growth at 37° C., 100 μL aliquots of each of these bacterial cultures were transferred to wells of a 96-well microtiter plate, with or without 10 ng of anhydrotetracycline dissolved in 1 μL ethanol. The growth of bacterial cultures, which were constantly under agitation, was monitored with a plate reader (SpectraMAX-250, Molecular Devices).

For another assay, the target named is T1, E. coli ProRS (Escherichia coli, UniProt P16659).
T1 construct: made in house
T1 sequence (P16659 whole entry, looked up): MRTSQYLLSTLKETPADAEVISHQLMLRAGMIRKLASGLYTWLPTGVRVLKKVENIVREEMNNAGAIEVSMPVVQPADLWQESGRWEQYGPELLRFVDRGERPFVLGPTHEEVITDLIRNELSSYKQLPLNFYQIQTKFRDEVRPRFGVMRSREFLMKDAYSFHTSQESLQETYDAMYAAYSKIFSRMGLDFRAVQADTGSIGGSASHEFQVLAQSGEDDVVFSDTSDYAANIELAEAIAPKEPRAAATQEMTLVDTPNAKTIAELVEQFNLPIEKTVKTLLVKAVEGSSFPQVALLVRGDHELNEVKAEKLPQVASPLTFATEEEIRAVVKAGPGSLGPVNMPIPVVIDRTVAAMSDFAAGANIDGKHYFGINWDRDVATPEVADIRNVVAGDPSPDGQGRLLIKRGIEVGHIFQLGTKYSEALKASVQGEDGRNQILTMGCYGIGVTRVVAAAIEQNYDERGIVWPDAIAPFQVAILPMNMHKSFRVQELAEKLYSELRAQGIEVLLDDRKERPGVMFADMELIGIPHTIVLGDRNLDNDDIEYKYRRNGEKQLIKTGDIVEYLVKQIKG
Briefly: E. coli ProRS tRNA charging (aminoacylation) inhibition. Type of assay: biochemical. Particulars: read-out: K, (inhibition of E. coli ProRS aminoacylation activity). From the text: In order to produce pure protein for peptide selection, the E. coli ProRS gene (Genbank accession number: M97858) was PCR amplified and cloned into the pET-20b vector (Novagen) using standard molecular cloning protocols (J. Sambrook, et al., Molecular Cloning: A Laboratory Manual, 2nd edition, Cold Spring Harbor Laboratory Press, 1989). The overexpressed ProRS was purified sequentially on Q- and SP-Sepharose columns. […] Thirteen clones from phages that were identified as having a high affinity to ProRS were sequenced. These clones share 4 different sequences, 3 of which are closely related (Table l). See Example 4 of WO98/19162, published 7 May 1998.
The peptide having sequence number 3 was synthesized and tested for inhibition of tRNA charging activity of E. coli ProRS. […] This peptide is called Pro-3 (also, Pro3).
The expressed Pro-3/GST fusion protein was purified on a glutathione-agarose affinity column according to a procedure provided by Pharmacia (see, cg., procedures manual from Pharmacia P-L Biochemicals, Inc.: GST Gene Fusion System, regarding use of pGEX expression vectors and glutathione-S-transferase fusion proteins, 1993). The N-terminal sequence of the purified protein was determined by Edman cycles and confirmed to have the expected Pro-3 peptide sequence. […]

For assay [3], the target named is E. coli prolyl-tRNA synthetase (ProRS) (Escherichia coli) (UniProt P16659). Description: inhibition of ProRS enzyme activity, purified fusion protein.
Assay [4] has the same target. Briefly: cell-based or functional assay.
For assay [5], the target named is T2, E. coli prolyl-tRNA synthetase (ProRS) (Escherichia coli), P16659.
T2 chain: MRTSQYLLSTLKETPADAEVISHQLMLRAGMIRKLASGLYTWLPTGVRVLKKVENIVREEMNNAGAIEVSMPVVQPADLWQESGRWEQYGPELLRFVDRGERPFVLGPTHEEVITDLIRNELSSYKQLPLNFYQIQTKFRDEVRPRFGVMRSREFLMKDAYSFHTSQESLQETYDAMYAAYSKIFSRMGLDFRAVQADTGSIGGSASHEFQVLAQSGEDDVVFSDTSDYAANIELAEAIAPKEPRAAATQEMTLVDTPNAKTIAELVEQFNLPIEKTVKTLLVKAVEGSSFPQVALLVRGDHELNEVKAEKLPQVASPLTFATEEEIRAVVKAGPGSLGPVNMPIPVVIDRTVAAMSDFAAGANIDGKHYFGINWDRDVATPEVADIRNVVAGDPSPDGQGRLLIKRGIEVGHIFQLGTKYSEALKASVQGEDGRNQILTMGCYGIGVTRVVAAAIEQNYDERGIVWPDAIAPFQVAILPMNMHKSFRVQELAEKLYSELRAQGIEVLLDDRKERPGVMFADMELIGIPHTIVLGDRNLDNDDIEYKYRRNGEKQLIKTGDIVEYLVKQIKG
Description: inhibition of tRNA charging activity, synthetic peptide.

Ends that are not written are not given here.

Chain of S. aureus MetRS (Q5HII6 whole entry): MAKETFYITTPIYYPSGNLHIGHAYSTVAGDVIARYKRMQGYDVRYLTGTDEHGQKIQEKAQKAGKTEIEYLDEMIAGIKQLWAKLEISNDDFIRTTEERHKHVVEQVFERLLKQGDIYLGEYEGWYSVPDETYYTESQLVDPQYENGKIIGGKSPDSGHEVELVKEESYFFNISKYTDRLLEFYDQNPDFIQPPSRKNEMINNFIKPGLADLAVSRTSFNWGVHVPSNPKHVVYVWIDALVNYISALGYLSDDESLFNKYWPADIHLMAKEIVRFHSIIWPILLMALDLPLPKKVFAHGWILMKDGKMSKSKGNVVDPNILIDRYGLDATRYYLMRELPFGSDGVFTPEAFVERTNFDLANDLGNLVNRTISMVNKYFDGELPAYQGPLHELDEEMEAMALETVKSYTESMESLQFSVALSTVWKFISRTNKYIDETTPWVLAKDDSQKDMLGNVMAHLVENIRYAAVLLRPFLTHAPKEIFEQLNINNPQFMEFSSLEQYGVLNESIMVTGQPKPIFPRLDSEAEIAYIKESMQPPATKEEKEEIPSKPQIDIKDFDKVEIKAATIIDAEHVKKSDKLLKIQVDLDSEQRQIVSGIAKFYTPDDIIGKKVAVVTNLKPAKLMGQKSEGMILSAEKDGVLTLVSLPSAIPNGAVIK

MWDLPYIWSRPV [JT02]: the Ki on S. aureus MetRS is 1700 nM.

`Cc1c2c(c(O)c3c(O)cccc13)C(=O)[C@]1(O)C(=O)C(C(N)=O)=C(O)[C@@H](N(C)C)[C@@H]1C2` [Anhydrotetracycline, anhydrotetracycline]: the “Survival (7 days)” value in the assay with E. coli pPROTet-GST (inducer 0.5 mg/kg) was 0/5; in the assay with E. coli pPROTet-GST (inducer 1 mg/kg) it was 0/5; in the assay on E. coli pPROTet-GST (inducer 2 mg/kg), 0/5; in assay [1] (inducer 0.5 mg/kg), 5/5; in assay [1] (inducer 1 mg/kg), 5/5; in assay [1] (inducer 2 mg/kg), 5/5.

“Pro-3/GST: Pro-3 peptide fused through a 4-amino acid linker to glutathione S-transferase (GST), expressed from pC^3844 (SREWHFWRDYNPTSREGGG; also: fused to GST through a linker, GST left off)”: the “E. coli growth (OD600) upon expression” value in assay [2] was “inhibits E. coli growth”. Moreover, in the assay with E. coli ProRS, the Ki was found to be 180 nM.

For the molecule SREWHFWRDYNPTSREGGG [Pro-3/GST fusion protein], the Ki in assay [3] was found to be 180 nM. Besides, in assay [4], the Charged tRNA (tRNA-Pro) in cells, +Inducer worked out at 23%; the Charged tRNA (tRNA-Pro) in cells, -Inducer worked out at 70%; the Survival (7 days), mice infected with E. coli JM109/pSC/pC3844, anhydrotetracycline 0.5 mg/kg i.p. x2 is 5 of 5 mice; the Survival (7 days), mice infected with E. coli JM109/pSC/pC3844, anhydrotetracycline 1 mg/kg i.p. x2 is 5 of 5 mice. Moreover, in assay [4], the Survival (7 days), mice infected with E. coli JM109/pSC/pC3844, anhydrotetracycline 2 mg/kg i.p. x2 is 5 of 5 mice and the Survival (7 days), mice infected with E. coli JM109/pSC/pC3844, saline (no induction) was 0 of 5 mice.

Regarding SREWHFWRDYNPTSR (modifications not checked) [Pro-3 peptide (…)], the Ki in assay [5] is 300 nM.
